Molecular target: T1, TFR1 (human source) (human, UniProt P02786 89-760, limits assumed)
T1 construct: Soluble reagent added at 2 µg/mL to ferritin-coated ELISA plates; also called Tfr1 receptor; Tfr-1 receptor
Test: ELISA, ferritin coated, human TFR1 2 µg/mL

T1 sequence (P02786 89-760 limits assumed): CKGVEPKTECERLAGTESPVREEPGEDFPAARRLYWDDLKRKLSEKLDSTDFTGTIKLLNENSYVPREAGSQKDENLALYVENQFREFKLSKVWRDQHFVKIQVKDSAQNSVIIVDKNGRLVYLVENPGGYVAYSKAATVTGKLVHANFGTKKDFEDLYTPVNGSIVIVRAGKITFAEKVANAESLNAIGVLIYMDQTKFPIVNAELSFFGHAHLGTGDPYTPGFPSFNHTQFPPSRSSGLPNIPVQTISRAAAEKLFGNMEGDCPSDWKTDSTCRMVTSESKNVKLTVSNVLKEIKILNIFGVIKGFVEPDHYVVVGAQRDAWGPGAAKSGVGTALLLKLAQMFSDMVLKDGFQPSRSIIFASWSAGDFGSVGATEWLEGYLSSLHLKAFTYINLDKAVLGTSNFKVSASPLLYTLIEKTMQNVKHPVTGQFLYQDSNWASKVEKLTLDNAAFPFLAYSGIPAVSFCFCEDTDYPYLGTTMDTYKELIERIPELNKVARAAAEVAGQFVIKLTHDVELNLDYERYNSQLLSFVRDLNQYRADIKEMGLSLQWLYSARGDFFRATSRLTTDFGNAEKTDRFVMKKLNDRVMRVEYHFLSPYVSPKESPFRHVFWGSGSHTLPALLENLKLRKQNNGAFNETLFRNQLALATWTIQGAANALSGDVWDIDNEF

Row | binding result | Binder
1 | no binding | HFn-Mt-3 (ligand, cage protein; also called HFn-Mut-3) TTASTSQVRQNYHQDSEAAINRQINLELYASYVYLSMSYYFDRDDVALKNFAKYFLHQSHEEREHAEKLMKLQNQRGGRICLQDIKKPDSDDWESGLNAMESALHLEKNVNQSLLELHKLATDKNDPHLSDFIETHYLNEQVKAIKELGDHVTNLRKMGAPESGLAEYLFDKHTLGDSDNES
2 | no binding | HFn-Mt-5 (ligand, cage protein; also called HFn-Mut-5) TTASTSQVRQNYHQDSEAAINRQINLELYASYVYLSMSYYFDRDDVALKNFAKYFLHQSHEEREHAEKLMKLQNQRGGRIFLCDIKKPDSDDWESGLNAMESALHLEKNVNQSLLELHKLATDKNDPHLSDFIETHYLNEQVKAIKELGDHVTNLRKMGAPESGLAEYLFDKHTLGDSDNES

— patent US20230203111A1 (published 2023)
